# Reference: patent US7803377B2, “Anti-DLL4 antibodies and methods using same” (Genentech, Inc., priority 2006, dated 2010)
# How the values were obtained:
# DLL1 [1] = biological target: T1, DLL1 (Homo sapiens, UniProt O00548); assay: ELISA binding to coated purified recombinant proteins; details: plates coated with recombinant protein 1 μg/ml
# T1 sequence (O00548 18-723): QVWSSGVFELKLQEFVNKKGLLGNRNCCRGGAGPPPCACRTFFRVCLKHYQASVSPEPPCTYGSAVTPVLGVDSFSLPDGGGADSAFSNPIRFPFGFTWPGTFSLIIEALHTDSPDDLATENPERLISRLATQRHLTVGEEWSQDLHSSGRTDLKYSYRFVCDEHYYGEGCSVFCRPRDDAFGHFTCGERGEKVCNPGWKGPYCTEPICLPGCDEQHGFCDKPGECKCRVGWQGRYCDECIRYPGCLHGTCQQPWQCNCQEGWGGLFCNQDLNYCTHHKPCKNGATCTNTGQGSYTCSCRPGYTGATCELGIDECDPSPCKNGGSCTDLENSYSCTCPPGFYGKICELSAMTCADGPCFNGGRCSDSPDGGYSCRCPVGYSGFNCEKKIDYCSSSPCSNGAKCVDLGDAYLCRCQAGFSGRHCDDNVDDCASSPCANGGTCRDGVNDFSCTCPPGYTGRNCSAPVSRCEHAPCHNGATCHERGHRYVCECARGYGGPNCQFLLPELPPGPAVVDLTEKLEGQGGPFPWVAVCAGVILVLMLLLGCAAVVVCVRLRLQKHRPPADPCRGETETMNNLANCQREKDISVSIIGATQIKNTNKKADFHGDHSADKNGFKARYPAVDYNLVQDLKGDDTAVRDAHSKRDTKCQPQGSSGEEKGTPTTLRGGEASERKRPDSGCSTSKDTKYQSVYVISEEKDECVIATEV
# Method: (§1) 96-well Nunc Maxisorp plates were coated with purified recombinant proteins as indicated (1 μg/ml). […] Bound antibodies were detected with anti-human antibody HRP conjugate using TMB as substrate and OD 450 nm absorbance measurement. Anti-HER2 and recombinant ErbB2-ECD were used as assay control (FIG. 11b).
# DLL4 [2] = biological target: T2, DLL4 (Homo sapiens, UniProt Q9NR61); assay: as above; details: plates coated with recombinant protein 1 μg/ml
# Method: as §1
# Jag1 [3] = biological target: T3, Jag1 (Homo sapiens, UniProt P78504); assay: as above; details: plates coated with recombinant protein 1 μg/ml
# Method: as §1
# mouse DLL4 = mouse DLL4 (Mus musculus, UniProt Q9JI71); assay: as above; details: plates coated with recombinant protein 1 μg/ml
# Sequence of mouse DLL4 (Q9JI71 27-686): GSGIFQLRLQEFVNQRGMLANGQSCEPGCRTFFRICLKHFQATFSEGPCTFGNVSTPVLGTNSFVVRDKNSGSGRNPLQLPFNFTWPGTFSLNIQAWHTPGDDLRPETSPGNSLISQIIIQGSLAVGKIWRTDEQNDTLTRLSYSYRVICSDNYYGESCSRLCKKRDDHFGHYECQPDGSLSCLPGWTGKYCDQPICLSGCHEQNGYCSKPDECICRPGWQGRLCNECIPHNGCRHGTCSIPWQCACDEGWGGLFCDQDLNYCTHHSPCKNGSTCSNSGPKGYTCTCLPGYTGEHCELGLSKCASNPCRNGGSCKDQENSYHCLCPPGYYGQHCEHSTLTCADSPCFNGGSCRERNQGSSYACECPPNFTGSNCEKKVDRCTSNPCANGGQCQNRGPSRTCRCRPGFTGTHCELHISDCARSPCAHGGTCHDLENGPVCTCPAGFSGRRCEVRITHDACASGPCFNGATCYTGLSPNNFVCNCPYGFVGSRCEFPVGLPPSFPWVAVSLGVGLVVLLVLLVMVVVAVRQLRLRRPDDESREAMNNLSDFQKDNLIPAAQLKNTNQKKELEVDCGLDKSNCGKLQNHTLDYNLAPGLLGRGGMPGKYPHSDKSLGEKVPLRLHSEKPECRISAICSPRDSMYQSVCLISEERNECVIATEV
# Method: as §1
# [4] = system: human ovarian cancer SK-OV-3 X1 cells; assay: Tumor model SK-OV-3X1; format: in vivo, mouse; details: 5 mg/kg, IP, twice weekly after establishment of the tumors
# Method: (§2) Tumor models. Beige nude female mice of 8- to 10-week-old were used. To obtain subcutaneous tumors, mice were injected with 0.1 ml cell suspension containing 50% matrigel (BD Bioscience) into the right posterior flank. 5×10^6 human colon cancer HM7 cells, 10×10^6 human colon carcinoma Colo205 cells, 10×10^6 human lung carcinoma Calu6 cells, 10×10^6 human lung carcinoma MV-522 cells, 10×10^6 mouse leukemia WEHI-3 cells, 10×10^6 mouse lymphoma EL4 cells, 10×10^6 human ovarian cancer SK-OV-3 X1 cells, 10×06 mouse lung cancer LL2 cells, 10×10^6 leukemia/lymphoma EL4 cells, or 10×10^6 non-small lung cancer H1299 cells were injected into each mouse. For human melanoma MDA-MB-435 model, mice were injected into the mammary fat pad with 0.1 ml cell (5×10^6) suspension containing 50% matrigel. […] For the following tumor models, each test mouse received a subcutaneous tumor fragment (1 mm^3) implanted in the right flank: non-small lung cancer SKMES-1, human breast cancer MX-1, human colorectal cancer SW620 and human adenocarcinoma LS174T. The tumor growth was quantitated by caliper measurements. Tumor volume (mm^3) was determined by measuring the length (l) and width (w) and calculating the volume (V=lw2/2). 10 to 15 animals were included in each group. Statistical comparison of treatment groups was performed using two-tailed Student's t-test. […]
# [5] = system: human colorectal cancer SW620; assay: Tumor model SW620; format: in vivo, mouse; details: 5 mg/kg, IP, twice weekly after establishment of the tumors
# Method: as §2
# DLL1 [6] = biological target: T1, DLL1; assay: FACS analysis of transiently transfected 293 cells; format: binding; parameters: transiently transfected with vector, full length DLL4, Jag1 or DLL1; expressed in transfected cells; host or cells: 293 cells, transient; details: DLL1 transfected 293 cells; antibody 2 μg/ml
# Source text: (§3) Expression of Jag1 and DLL1 was confirmed by the binding of recombinant rat Notch1-Fc (rrNotch1-Fc, middle panel) and recombinant rat Notch2-Fc (rrNotch2-Fc, bottom panel), respectively.
# Jag1 [7] = biological target: T3, Jag1; assay: FACS analysis of transiently transfected 293 cells; format: binding; parameters: transiently transfected with vector, full length DLL4, Jag1 or DLL1; expressed in transfected cells; host or cells: 293 cells, transient; details: Jag1 transfected 293 cells; antibody 2 μg/ml
# Source text: as §3
# DLL4 [8] = biological target: T2, DLL4; assay: Notch ligand: Notch blocking ELISA (DLL4-AP / DLL4-His binding to coated rNotch1); parameters: amino acid 1-404 of DLL4 fused to human placenta alkaline phosphatase; made in house; host or cells: 293 cells, conditioned medium (DLL4-AP); details: purified DLL4-His, read-out: calculated IC50, blocking the binding of DLL4-His to coated rNotch1
# Method: Conditioned medium containing DLL4-AP (amino acid 1-404 of DLL4 fused to human placenta alkaline phosphatase) was used in the assay. To prepare conditioned medium, 293 cells were transiently transfected with plasmid expressing DLL4-AP with Fugen6 reagent (Roche Molecular Biochemicals). Five days posttransfection, the conditioned medium was harvested, filtered and stored at 4° C. Purified antibodies titrated from 0.15 to 25 μg/ml were preincubated for 1 hr at room temperature with DLL4-AP conditioned medium at a dilution that conferred 50% maximally achievable binding to coated rrNotch1-Fc. The antibody/DLL4-AP mixture was then added to rrNotch1-Fc coated plate for 1 hr at room temperature, after which plates were washed several times in PBS. The bound DLL4-AP was detected using 1-Step PNPP (Pierce) as substrate and OD 405 nm absorbance measurement. […] The bound His-tagged ligands was detected with mouse anti-His mAb (1 μg/ml, Roche Molecular Biochemicals), biotinylated goat-anti-mouse (Jackson ImmunoResearch) and Streptavidin-AP (Jackson ImmunoResearch).
substance,measurement,setting,value
"YW26.82: affinity matured anti-DLL4 monoclonal antibody; HVR-H1/H2/H3 SEQ ID NO:1, 8, 9; HVR-L1/L2/L3 SEQ ID NO:10, 11, 18",binding by ELISA,DLL1 [1],did not delectably bind
same,binding by ELISA,DLL4 [2],bound
same,binding by ELISA,Jag1 [3],did not delectably bind
same,binding by ELISA,mouse DLL4,bound
same,"tumor growth, single agent",[4],inhibited tumor growth alone
same,"tumor growth, single agent",[5],inhibited tumor growth alone
same,binding by FACS,DLL1 [6],Significant binding was not detected
same,binding by FACS,Jag1 [7],Significant binding was not detected
same,IC50,DLL4 [8],~8 nM
